Data on 13 molecules can be found in patent US20210277144A1 (SHANGHAI INSTITUTE OF BIOLOGICAL PRODUCTS, published 2021).

Test [1] has as its target T1, HER3 extracellular domain recombinant protein (human, UniProt P21860 20-643).
T1 construct: extracellular domain; also called HER3 extracellular domain protein; HER3 protein
Description: SPR, ProteOn XPR36; compared with the chimeric antibody. The method, then: (§1) And the channels were turned to horizontal position, and Channels 1-5 were injected with 20 nM, 10 nM, 5 nM, 2.5 nM, 1.25 nM of samples of HER3 extracellular domain protein respectively, and Channel 6 was injected with buffer. 5 kinetic response curves were obtained, respectively representing the results of the reaction between different concentrations of antigen and the captured antibody. The Langmuir model was used to calculate the affinity constants KD (M) of each chimeric antibody and humanized antibody mutant.
(In general: In SPR one partner is held on a chip, and binding of the other changes the refractive index at the surface.)

For test [2], the target named is T1, HER3 extracellular domain recombinant …. Description: SPR, ProteOn XPR36; antibody captured by goat anti-human antibody, HER3 extracellular domain 1.25-20 nM as analyte, Langmuir model. The method, then: as §1
Test [3] has the same target. The test is described as above. The method, then: as §1
The source holds these as a separate data set.

Read-outs that look alike come from different tables or passages of the source. A value given as a limit tells only on which side of the number the result lay.

T1 sequence (P21860 20-643): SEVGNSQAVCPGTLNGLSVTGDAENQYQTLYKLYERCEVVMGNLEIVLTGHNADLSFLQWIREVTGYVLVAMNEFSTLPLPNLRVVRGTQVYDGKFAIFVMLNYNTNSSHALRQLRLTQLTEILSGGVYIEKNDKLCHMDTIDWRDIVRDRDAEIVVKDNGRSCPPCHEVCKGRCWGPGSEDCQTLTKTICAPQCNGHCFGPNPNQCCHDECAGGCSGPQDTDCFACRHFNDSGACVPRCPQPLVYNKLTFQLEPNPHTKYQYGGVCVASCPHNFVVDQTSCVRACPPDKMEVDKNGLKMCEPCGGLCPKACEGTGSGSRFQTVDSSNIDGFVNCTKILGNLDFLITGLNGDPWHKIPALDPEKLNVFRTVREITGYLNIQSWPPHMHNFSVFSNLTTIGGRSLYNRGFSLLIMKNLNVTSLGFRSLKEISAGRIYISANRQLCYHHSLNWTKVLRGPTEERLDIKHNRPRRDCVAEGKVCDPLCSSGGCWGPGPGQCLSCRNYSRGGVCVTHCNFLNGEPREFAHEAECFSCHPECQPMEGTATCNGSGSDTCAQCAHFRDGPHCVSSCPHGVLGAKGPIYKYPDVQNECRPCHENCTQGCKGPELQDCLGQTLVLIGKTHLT

B1: humanized antibody h1044-0 (antibody, V domains shown)
VH: QVQLVQSGAEVKKPGSSVKVSCKASGGTFSNYWIDWVRQAPGQGLEWMGEILPGSGGTDYNEKFKGRVTITADTSTSTAYMELSSLRSEDTAVYYCARDDYDVFAYWGQGTLVTVSS
VL: DIVMTQSPGTLSLSPGERATLSCRSSKSLLHSNGITYLYWYQQKPGQAPRLLIYQMSNLASGIPDRFSGSGSGTDFTLTISRLEPEDFAVYYCAQNLELPWTFGQGTKVEIKR
notes: also called humanized h1044-0 antibody after CDR transplantation
Broadly, the Kd is the equilibrium constant for the complex coming apart. By koff is commonly meant the rate constant with which the complex falls apart. One may read the kon as the rate constant with which the complex forms. In the case of B1, the “fold lower affinity than the chimeric antibody” value in test [1] is roughly 32 fold. In test [2], the Kd was found to be 8.48 nM, the koff was found to be 0.00427 s⁻¹ and the kon stood at 503000 M⁻¹ s⁻¹.

B2: humanized antibody hu1044-1 (VL69 back mutation) (antibody, human IgG1, V domains shown)
VH: QVQLVQSGAEVKKPGSSVKVSCKASGGTFSNYWIDWVRQAPGQGLEWMGEILPGSGGTDYNEKFKGRVTITADTSTSTAYMELSSLRSEDTAVYYCARDDYDVFAYWGQGTLVTVSS
VL: DIVMTQSPGTLSLSPGERATLSCRSSKSLLHSNGITYLYWYQQKPGQAPRLLIYQMSNLASGIPDRFSSSGSGTDFTLTISRLEPEDFAVYYCAQNLELPWTFGQGTKVEIKR
notes: h1044-0 with Gly to Ser at VL69
As for B2, in test [1], the “fold difference in affinity from the chimeric antibody” value was roughly 2 fold. Besides, in test [3], the Kd was 0.595 nM, the koff came to 0.000502 s⁻¹ and the association rate constant (kon) came out at 843000 M⁻¹ s⁻¹.

B3: humanized antibody with VH77 back mutation (antibody, V domains shown)
VH: QVQLVQSGAEVKKPGSSVKVSCKASGGTFSNYWIDWVRQAPGQGLEWMGEILPGSGGTDYNEKFKGRVTITADTSTNTAYMELSSLRSEDTAVYYCARDDYDVFAYWGQGTLVTVSS
VL: DIVMTQSPGTLSLSPGERATLSCRSSKSLLHSNGITYLYWYQQKPGQAPRLLIYQMSNLASGIPDRFSGSGSGTDFTLTISRLEPEDFAVYYCAQNLELPWTFGQGTKVEIKR
With B3, in test [2], the Kd was 7.07 nM, the koff amounted to 0.00327 s⁻¹ and the kon came to 463000 M⁻¹ s⁻¹.

B4: humanized antibody hu1044-7 (VL63/69, VH67/68 back mutation) (antibody, human IgG1, V domains shown)
VH: QVQLVQSGAEVKKPGSSVKVSCKASGGTFSNYWIDWVRQAPGQGLEWMGEILPGSGGTDYNEKFKGKATITADTSTSTAYMELSSLRSEDTAVYYCARDDYDVFAYWGQGTLVTVSS
VL: DIVMTQSPGTLSLSPGERATLSCRSSKSLLHSNGITYLYWYQQKPGQAPRLLIYQMSNLASGVPDRFSSSGSGTDFTLTISRLEPEDFAVYYCAQNLELPWTFGQGTKVEIKR
Take B4: in test [3], the dissociation constant Kd amounted to 0.375 nM, the koff amounted to 0.000376 s⁻¹ and the on-rate constant (kon) was 1e+06 M⁻¹ s⁻¹.

B5: humanized antibody hu1044-4 (VL69, VH68 back mutation) (antibody, human IgG1, V domains shown)
VH: QVQLVQSGAEVKKPGSSVKVSCKASGGTFSNYWIDWVRQAPGQGLEWMGEILPGSGGTDYNEKFKGRATITADTSTSTAYMELSSLRSEDTAVYYCARDDYDVFAYWGQGTLVTVSS
VL: DIVMTQSPGTLSLSPGERATLSCRSSKSLLHSNGITYLYWYQQKPGQAPRLLIYQMSNLASGIPDRFSSSGSGTDFTLTISRLEPEDFAVYYCAQNLELPWTFGQGTKVEIKR
Consider B5, for which the “fold of the affinity constant of the chimeric antibody” value (“fold … of the chimeric antibody” for short) in test [1] was no more than 2 fold. Also, in test [3], the Kd is 0.461 nM, the off-rate (koff) came to 0.000388 s⁻¹ and the kon was determined as 841000 M⁻¹ s⁻¹.

B6: humanized antibody with VH76 back mutation (antibody, V domains shown)
VH: QVQLVQSGAEVKKPGSSVKVSCKASGGTFSNYWIDWVRQAPGQGLEWMGEILPGSGGTDYNEKFKGRVTITADTSSSTAYMELSSLRSEDTAVYYCARDDYDVFAYWGQGTLVTVSS
VL: DIVMTQSPGTLSLSPGERATLSCRSSKSLLHSNGITYLYWYQQKPGQAPRLLIYQMSNLASGIPDRFSGSGSGTDFTLTISRLEPEDFAVYYCAQNLELPWTFGQGTKVEIKR
B6: in test [2], the Kd is 6.49 nM, the off-rate constant (koff) was found to be 0.00344 s⁻¹ and the kon came out at 531000 M⁻¹ s⁻¹.

B7: humanized antibody hu1044 (VL69, VH38 back mutation) (antibody, V domains shown)
VH: QVQLVQSGAEVKKPGSSVKVSCKASGGTFSNYWIDWVKQAPGQGLEWMGEILPGSGGTDYNEKFKGRVTITADTSTSTAYMELSSLRSEDTAVYYCARDDYDVFAYWGQGTLVTVSS
VL: DIVMTQSPGTLSLSPGERATLSCRSSKSLLHSNGITYLYWYQQKPGQAPRLLIYQMSNLASGIPDRFSSSGSGTDFTLTISRLEPEDFAVYYCAQNLELPWTFGQGTKVEIKR
notes: also called final humanized antibody hu1044
Turning to B7, the “fold … of the chimeric antibody” value in test [1] is no more than 2 fold. For the same molecule, in test [3], the Kd was found to be 0.442 nM, the koff amounted to 0.000386 s⁻¹ and the on-rate (kon) turned out to be 875000 M⁻¹ s⁻¹.

B8: humanized antibody hu1044-5 (VL63/69, VH38 back mutation) (antibody, human IgG1, V domains shown)
VH: QVQLVQSGAEVKKPGSSVKVSCKASGGTFSNYWIDWVKQAPGQGLEWMGEILPGSGGTDYNEKFKGRVTITADTSTSTAYMELSSLRSEDTAVYYCARDDYDVFAYWGQGTLVTVSS
VL: DIVMTQSPGTLSLSPGERATLSCRSSKSLLHSNGITYLYWYQQKPGQAPRLLIYQMSNLASGVPDRFSSSGSGTDFTLTISRLEPEDFAVYYCAQNLELPWTFGQGTKVEIKR
Consider B8, for which, in test [3], the Kd worked out at 0.419 nM, the koff turned out to be 0.000353 s⁻¹ and the kon came out at 844000 M⁻¹ s⁻¹.

B9: humanized antibody with VH1 back mutation (antibody, V domains shown)
VH: EVQLVQSGAEVKKPGSSVKVSCKASGGTFSNYWIDWVRQAPGQGLEWMGEILPGSGGTDYNEKFKGRVTITADTSTSTAYMELSSLRSEDTAVYYCARDDYDVFAYWGQGTLVTVSS
VL: DIVMTQSPGTLSLSPGERATLSCRSSKSLLHSNGITYLYWYQQKPGQAPRLLIYQMSNLASGIPDRFSGSGSGTDFTLTISRLEPEDFAVYYCAQNLELPWTFGQGTKVEIKR
In the case of B9, in test [2], the Kd was 9.14 nM, the koff is 0.00382 s⁻¹ and the kon turned out to be 418000 M⁻¹ s⁻¹.

B10: humanized antibody hu1044-3 (VL69, VH48 back mutation) (antibody, human IgG1, V domains shown)
VH: QVQLVQSGAEVKKPGSSVKVSCKASGGTFSNYWIDWVRQAPGQGLEWIGEILPGSGGTDYNEKFKGRVTITADTSTSTAYMELSSLRSEDTAVYYCARDDYDVFAYWGQGTLVTVSS
VL: DIVMTQSPGTLSLSPGERATLSCRSSKSLLHSNGITYLYWYQQKPGQAPRLLIYQMSNLASGIPDRFSSSGSGTDFTLTISRLEPEDFAVYYCAQNLELPWTFGQGTKVEIKR
Regarding B10, the “fold … of the chimeric antibody” value in test [1] was no more than 2 fold. Further, in test [3], the Kd was found to be 0.554 nM, the koff is 0.000494 s⁻¹ and the kon worked out at 882000 M⁻¹ s⁻¹.

B11: humanized antibody hu1044-6 (VL63/69, VH68 back mutation) (antibody, human IgG1, V domains shown)
VH: QVQLVQSGAEVKKPGSSVKVSCKASGGTFSNYWIDWVRQAPGQGLEWMGEILPGSGGTDYNEKFKGRATITADTSTSTAYMELSSLRSEDTAVYYCARDDYDVFAYWGQGTLVTVSS
VL: DIVMTQSPGTLSLSPGERATLSCRSSKSLLHSNGITYLYWYQQKPGQAPRLLIYQMSNLASGVPDRFSSSGSGTDFTLTISRLEPEDFAVYYCAQNLELPWTFGQGTKVEIKR
As for B11, in test [3], the Kd is 0.42 nM, the koff came out at 0.00038 s⁻¹ and the kon amounted to 904000 M⁻¹ s⁻¹.

B12: humanized antibody with VH25 back mutation (antibody, V domains shown)
VH: QVQLVQSGAEVKKPGSSVKVSCKATGGTFSNYWIDWVRQAPGQGLEWMGEILPGSGGTDYNEKFKGRVTITADTSTSTAYMELSSLRSEDTAVYYCARDDYDVFAYWGQGTLVTVSS
VL: DIVMTQSPGTLSLSPGERATLSCRSSKSLLHSNGITYLYWYQQKPGQAPRLLIYQMSNLASGIPDRFSGSGSGTDFTLTISRLEPEDFAVYYCAQNLELPWTFGQGTKVEIKR
On to B12, for which, in test [2], the Kd was determined as 6.02 nM, the off-rate (koff) was found to be 0.00317 s⁻¹ and the kon stood at 525000 M⁻¹ s⁻¹.

B13: 1044 human-mouse chimeric antibody (antibody, V domains shown)
VH: EVQLQQSGTELMKPGASVKISCKATGGTFSNYWIDWVKQRPGHGLEWIGEILPGSGGTDYNEKFKGKATFTADTSSNTAYMQLSSLTSEDSAVYYCARDDYDVFAYWGQGTLVTVSA
VL: DIVMTQAAFSNPVTLGTSASISCRSSKSLLHSNGITYLYWYLQKPGQSPQLLIYQMSNLASGVPDRFSSSGSGTDFTLRISRVEAEDVGVYYCAQNLELPWTFGGGTKLEIKR
Turning to B13, in test [2], the Kd is 0.262 nM, the koff stood at 0.000229 s⁻¹ and the kon came to 874000 M⁻¹ s⁻¹. Also, in test [3], the Kd was determined as 0.278 nM, the off-rate constant (koff) was determined as 0.000293 s⁻¹ and the kon came out at 1.05e+06 M⁻¹ s⁻¹.
